Data on 2 molecules can be found in PMC5821440.

Numbered stars: 1 amine (or outer) side, 2 acyl side, 3 side chain; on linkers, the order of the positions; unused ones are H or OH. * marks the point of attachment. pNA = O=[N+]([O-])c1ccc(N*)cc1; Suc = O=C(CCC(=O)[*:2])[*:1]

Broadly, the stoichiometry N is a count of units in the complex or per binding partner.

For experiment [1], the target named is Pro21717-CD, catalytic domain of the cold-active subtilisin-like serine protease Pro21717 from Pseudoalteromonas arctica PAMC 21717 (Pseudoalteromonas arctica PAMC 21717). Kind of experiment: not stated; purified Pro21717-CD in solution, three days after refolding; method in S2 Fig, not shown.
Experiment [2] shares this target.

Molecule “Pro21717-CD, catalytic domain of the cold-active subtilisin-like serine protease Pro21717 from Pseudoalteromonas arctica PAMC 21717 (domain or fragment)” showed a stoichiometry N in experiment [1] of 2. In turn, Suc-AAPF-pNA [N-succinyl-Ala-Ala-Pro-Phe-p-nitroanilide] showed a relative proteolytic activity (%) on N-succinyl-AAPF-p-nitroanilide, 0.83 mM, 30°C, 5 min (the best peptide substrate, set to 100) in experiment [2] of 100%.
